Target: protein A (UniProt P38507)
Assay: spectral-domain phase-sensitive interferometry (SD-PSI), label-free; protein A (0.5 mg/ml) adsorbed on a dopamine layer on a glass chip (0.17 or 0.20 mm) and blocked with protein-free blocking solution; IgG solution (20 ug/ml mouse IgG; gradient of 10, 20, 30, 50 ug/ml IgG) passed through the flow chamber; PBS washes; reference path without protein A

mouse IgG (antibody)
phase change at 20 ug/ml IgG: 0.04 rad | thickness variation at 10 ug/ml IgG: 1.86 nm | thickness variation at 20 ug/ml IgG: 3.76 nm | thickness variation at 30 ug/ml IgG: 5.45 nm | thickness variation at 50 ug/ml IgG: 10.1 nm

Reference: publication PMC8983844
